Laboratory results taken from paper PMC7641332 (Nucleic Acids Research, 2020).

T1: 2× MBP-BRCA2OB2-His10 (human, UniProt P51587 2780-3080)
T1 sequence: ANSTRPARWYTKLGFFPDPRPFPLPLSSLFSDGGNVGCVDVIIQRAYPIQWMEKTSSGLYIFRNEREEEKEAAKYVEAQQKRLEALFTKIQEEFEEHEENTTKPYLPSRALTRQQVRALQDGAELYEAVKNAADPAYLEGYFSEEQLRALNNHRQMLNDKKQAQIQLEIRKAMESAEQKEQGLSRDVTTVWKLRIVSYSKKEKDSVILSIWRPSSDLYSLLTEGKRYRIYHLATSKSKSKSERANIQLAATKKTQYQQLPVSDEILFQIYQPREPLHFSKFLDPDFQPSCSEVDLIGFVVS

B1: 2× MBP-BRCA2CT-FLAG-His10 (domain or fragment)
chain: QEKSLKASKSTPDGTIKDRRLFMHHVSLEPITCVPFRTTKERQEIQNPNFTAPGQEFLSKSHLYEHLTLEKSSSNLAVSGHPFYQVSATRNEKMRHLITTGRPTKVFVPPFKTKSHFHRVEQCVRNINLEENRQKQNIDGHGSDDSKNKINDNEIHQFNKNNSNQAVAVTFTKCEEEPLDLITSLQNARDIQDMRIKKKQRQRVFPQPGSLYLAKTSTLPRISLKAAVGGQVPSACSHKQLYTYGVSKHCIKINSKNAESFQFHTEDYFGKESLWTGKGIQLADGGWLIPSNDGKAGKEEFYRALCDTPGVDPKLISRIWVYNHYRWIIWKLAAMECAFPKEFANRCLSPERVLLQLKYRYDTEIDRSRRSAIKKIMERDDTAAKTLVLCVSDIISLSANISETSSNKTSSADTQKVAIIELTDGWYAVKAQLDPPLLAVLKNGRLTVGQKIILHGAELVGSPDACTPLEAPESLMLKISANSTRPARWYTKLGFFPDPRPFPLPLSSLFSDGGNVGCVDVIIQRAYPIQWMEKTSSGLYIFRNEREEEKEAAKYVEAQQKRLEALFTKIQEEFEEHEENTTKPYLPSRALTRQQVRALQDGAELYEAVKNAADPAYLEGYFSEEQLRALNNHRQMLNDKKQAQIQLEIRKAMESAEQKEQGLSRDVTTVWKLRIVSYSKKEKDSVILSIWRPSSDLYSLLTEGKRYRIYHLATSKSKSKSERANIQLAATKKTQYQQLPVSDEILFQIYQPREPLHFSKFLDPDFQPSCSEVDLIGFVVSVVKKTGLAPFVYLSDECYNLLAIKFWIDLNEDIIKPHMLIAASNLQWRPESKSGLLTLFAGDFSVFSASPKEGHFQETFNKMKNTVENIDILCNEAENKLMHILHANDPKWSTPTKDCTSGPYTAQIIPGTGNKLLMSSPNCEIYYQSPLSLCMAKRKSVSTPVSAQMTSKSCKGEKEIDDQKNCKKRRALDFLSRLPLPPPVSPICTFVSPAAQKAFQPPRSCGTKYETPIKKKELNSPQMTPFKKFNEISLLESNSIADEELALINTQALLSGSTGEKQFISVSESTRTAPTSSEDYLRLKRRCTTSLIKEQESSQASTEECEKNKQDTITTKKYI
B2: GST-BRCA2N7 (domain or fragment)
chain: VTDSENTNQREAASHGFGKTSGNSFKVNSCKDHIGKSMPNVLEDEVYETVVDTSEEDSFSLCFSKCRTKNLQKVRTSKTRKKIFHEANADECEKSKNQVKEKYSFVSEVEPNDTDPLDSNV
B3: GST-BRCA2NT-HA-His10 (domain or fragment)
chain: MPIGSKERPTFFEIFKTRCNKADLGPISLNWFEELSSEAPPYNSEPAEESEHKNNNYEPNLFKTPQRKPSYNQLASTPIIFKEQGLTLPLYQSPVKELDKFKLDLGRNVPNSRHKSLRTVKTKMDQADDVSCPLLNSCLSESPVVLQCTHVTPQRDKSVVCGSLFHTPKFVKGRQTPKHISESLGAEVDPDMSWSSSLATPPTLSSTVLIVRNEEASETVFPHDTTANVKSYFSNHDESLKKNDRFIASVTDSENTNQREAASHGFGKTSGNSFKVNSCKDHIGKSMPNVLEDEVYETVVDTSEEDSFSLCFSKCRTKNLQKVRTSKTRKKIFHEANADECEKSKNQVKEKYSFVSEVEPNDTDPLDSNVANQKPFESGSDKISKEVVPSLACEWSQLTLSGLNGAQMEKIPLLHISSCDQNISEKDLLDTENKRKKDFLTSENSLPRISSLPKSEKPLNEETVVNKRDEEQHLESHTDCILAVKQAISGTSPVASSFQGIKKSIFRIRESPKETFNASFSGHMTDPNFKKETEASESGLEIHTVCSQKEDSLCPNLIDNGSWPATTTQNSVALKNAGLISTLKKKTNKFIYAIHDETSYKGKKIPKDQKSELINCSAQFEANAFEAPLTFANADSGLLHSSVKRSCSQNDSEEPTLSLTSSFGTILRKCSRNETCSNNTVISQDLDYKEAKCNKEKLQLFITPEADSLSCLQE
B4: 2× MBP-BRCA2NT-FLAG-His10 (domain or fragment)
chain: B3 chain
B5: GST-BRCA2N9 (domain or fragment)
chain: ILAVKQAISGTSPVASSFQGIKKSIFRIRESPKETFNASFSGHMTDPNFKKETEASESGLEIHTVCSQKEDSLCPNLIDNGSWPATTTQNSVALKNAGLISTLKKKTNKFIYAIHDETSYKGKKIPKDQKSELINCSAQFEANAFEAPLTFANADSGLLHSSVKRSCSQNDSEEPTLSLTSSFGTILRKCSRNETCSNNTVISQDLDYKEAKCNKEKLQLFITPEADSLSCLQE

Key:
Assay in all cases: pull-down
GST-BRCA2NT-HA-His10 = target: B3
[1] = target: B4
[2] = target: B1
2× MBP-BRCA2OB2-His10 = target: T1, 2× MBP-BRCA2OB2-His10

B1
fold stronger than the interaction of MBP-BRCA2NT with GST-BRCA2NT (GST-BRCA2NT-HA-His10): ~6 fold

B2
binding result [1]: binds

B3
binding result [2]: binds

B4
binding result (GST-BRCA2NT-HA-His10): binds

B5
binding result [1]: binds | binding result (2× MBP-BRCA2OB2-His10): binds
